One block for each molecule: values may come before it.
How the values were obtained:
[1] = biological target: Bax_(C87(C62S, C126S)) labeled with maleimide gem-diethyl nitroxide (MAG) (human) (UniProt Q07812); assay: DEER (double electron-electron resonance, EPR); inactive Bax in buffer (aqueous solution) with 50% v/v glycerol-d8, flash frozen; Q-band 4-pulse DEER, NO-NO at 50 K, Gd-Gd at 10 K; one labeled variant per sample
[2] = biological target: Bax_(C87(C62S, C126S)) labeled with maleimide Gd-DOTA (human) (UniProt Q07812); assay: as above
[3] = biological target: T1, Bax wild type labeled with MTSL at cysteines 62 and 126 (human, UniProt Q07812 1-192, MTSL nitroxide spin label (R1) on the native cysteines 62 and 126); assay: DEER (double electron-electron resonance, EPR); two Bax variants mixed before oligomerization (3-fold excess of unlabeled BaxWT or of Bax_(C87Gd) over nitroxide-labeled BaxWT), activated with cBid and MOM-like liposomes, pellet fraction; NO-NO (50 K), NO-Gd (10 K) and Gd-Gd (10 K) DEER channels on the same sample; settings: both partners purified
T1 construct: Bax, human, full length; two native cysteines at positions 62 and 126; also called Bax_(WTR1); source: E. coli (BL21/RIPL/pTYB1-Bax), purified; labeled with MTSL

[4] = biological target: T2, Bax wild type labeled with iodacetamide gem-diethyl nitroxide (IAG) (human, UniProt Q07812 1-192, IAG (iodacetamide gem-diethyl nitroxide) spin label on the native cysteines 62 and 126); assay: as above; settings: both partners purified
T2 construct: Bax, human, full length; two native cysteines at positions 62 and 126; also called Bax_(WTIAG); source: E. coli (BL21/RIPL/pTYB1-Bax), purified; labeled with IAG

fraction of dimeric protein in solution [1]: < 10%
Molecule: Bax_(C87(C62S, C126S)) labeled with maleimide gem-diethyl nitroxide (MAG) (from UniProt Q07812 1-192) (natural protein)

fraction of dimeric protein in solution [2]: < 10% | binding result [3]: binds | binding result [4]: binds
B1: Bax_(C87(C62S, C126S)) labeled with maleimide Gd-DOTA (natural protein, human, UniProt Q07812 1-192, looked up)
chain: MDGSGEQPRGGGPTSSEQIMKTGALLLQGFIQDRAGRMGGEAPELALDPVPQDASTKKLSESLKRIGDELDSNMELQRMIAAVDTDCPREVFFRVAADMFSDGNFNWGRVVALFYFASKLVLKALSTKVPELIRTIMGWTLDFLRERLLGWIQDQGGWDGLLSYFGTPTWQTVTIFVAGVLTASLTIWKKMG
modifications: maleimide Gd-DOTA spin label on cysteine 87
notes: Bax, human, full length, single surface-exposed cysteine at position 87; also called Bax_(C87Gd); source: E. coli, purified in the same way as the wild type protein; labeled with maleimide Gd-DOTA
